According to IntAct's records for PubMed 25728924:

B1: Adhesion G protein-coupled receptor L3 (Mus musculus), Q80TS3 (parent)
chain: MWPPQLLILTMLLAPVVHGGKHNERHPALAAPLRHAERSPGGALPPRHLLQQPAAERSTAHRGQGPRGAARGVRGPGAPGAQIAAQAFSRAPIPMAVVRRELSCESYPIELRCPGTDVIMIESANYGRTDDKICDSDPAQMENIRCYLPDAYKIMSQRCNNRTQCAVVAGPDVFPDPCPGTYKYLEVQYECVPYKVEQKVFLCPGLLKGVYQSEHLFESDHQSGAWCKDPLQASDKIYYMPWTPYRTDTLTEYSSKDDFIAGRPTTTYKLPHRVDGTGFVVYDGALFFNKERTRNIVKFDLRTRIKSGEAIIANANYHDTSPYRWGGKSDIDLAVDENGLWVIYATEQNNGKIVISQLNPYTLRIEGTWDTAYDKRSASNAFMICGILYVVKSVYEDDDNEATGNKIDYIYNTDQSKDSLVDVPFPNSYQYIAAVDYNPRDNLLYVWNNYHVVKYSLDFGPLDSRSGPVHHGQVSYISPPIHLDSELERPPVRGISTTGSLGMGSTTTSTTLRTTTWNIGRSTTASLPGRRNRSTSTPSPAVEVLDDVTTHLPSAASQIPAMEESCEAVEAREIMWFKTRQGQVAKQPCPAGTIGVSTYLCLAPDGIWDPQGPDLSNCSSPWVNHITQKLKSGETAANIARELAEQTRNHLNAGDITYSVRAMDQLVGLLDVQLRNLTPGGKDSAARSLNKLQKRERSCRAYVQAMVETVNNLLQPQALNAWRDLTTSDQLRAATMLLDTVEESAFVLADNLLKTDIVRENTDNIQLEVARLSTEGNLEDLKFPENMGHGSTIQLSANTLKQNGRNGEIRVAFVLYNNLGPYLSTENASMKLGTEAMSTNHSVIVNSPVITAAINKEFSNKVYLADPVVFTVKHIKQSEENFNPNCSFWSYSKRTMTGYWSTQGCRLLTTNKTHTTCSCNHLTNFAVLMAHVEVKHSDAVHDLLLDVITWVGILLSLVCLLICIFTFCFFRGLQSDRNTIHKNLCISLFVAELLFLIGINRTDQPIACAVFAALLHFFFLAAFTWMFLEGVQLYIMLVEVFESEHSRRKYFYLVGYGMPALIVAVSAAVDYRSYGTDKVCWLRLDTYFIWSFIGPATLIIMLNVIFLGIALYKMFHHTAILKPESGCLDNINYEDNRPFIKSWVIGAIALLCLLGLTWAFGLMYINESTVIMAYLFTIFNSLQGMFIFIFHCVLQKKVRKEYGKCLRTHCCSGKSTESSIGSGKTSGSRTPGRYSTGSQSRIRRMWNDTVRKQSESSFITGDINSSASLNREGLLNNARDTSVMDTLPLNGNHGNSYSIAGGEYLSNCVQIIDRGYNHNETALEKKILKELTSNYIPSYLNNHERSSEQNRNMMNKLVNNLGSGSEDDAIVLDDAASFNHEESLGLELIHEESDAPLLPPRVYSTDNHQPHHYSRRRFPQDHSESFFPLLTDEHTEDLQSPHRDSLYTSMPALAGVPAADSVTTSTQTEAAAAKGGDAEDVYYKSMPNLGSRNHVHPLHAYYQLGRGSSDGFIVPPNKDGASPEGTSKGPAHLVTSL
partner: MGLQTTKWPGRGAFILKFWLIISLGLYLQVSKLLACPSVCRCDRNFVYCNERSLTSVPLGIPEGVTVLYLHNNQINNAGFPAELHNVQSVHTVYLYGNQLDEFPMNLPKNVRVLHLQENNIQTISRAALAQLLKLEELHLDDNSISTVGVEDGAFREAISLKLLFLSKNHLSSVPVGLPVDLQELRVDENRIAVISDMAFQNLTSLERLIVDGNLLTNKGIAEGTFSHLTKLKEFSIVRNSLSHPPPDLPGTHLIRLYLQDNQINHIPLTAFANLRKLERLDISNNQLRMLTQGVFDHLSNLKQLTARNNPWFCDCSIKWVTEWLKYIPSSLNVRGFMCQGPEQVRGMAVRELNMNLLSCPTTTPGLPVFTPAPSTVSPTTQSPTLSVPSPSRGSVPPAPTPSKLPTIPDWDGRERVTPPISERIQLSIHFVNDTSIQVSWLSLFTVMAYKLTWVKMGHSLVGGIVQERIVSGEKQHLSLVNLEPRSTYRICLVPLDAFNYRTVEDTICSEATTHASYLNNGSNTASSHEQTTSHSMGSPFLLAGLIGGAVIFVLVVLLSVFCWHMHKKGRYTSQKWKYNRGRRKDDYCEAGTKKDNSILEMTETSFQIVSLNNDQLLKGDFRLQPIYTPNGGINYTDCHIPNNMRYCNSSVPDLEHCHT
B2: Leucine-rich repeat transmembrane protein FLRT2 (Mus musculus), Q8BLU0 (parent)
chain: B1 partner

Variants of: B1
Conditions: with flrt2_mouse Flrt2, Q8BLU0
In the case of T267N;K269T, the “effect of a mutation on the interaction” value is reported as “decreasing interaction strength”. For P244N;R246T, the “effect of a mutation on the interaction” value was “decreasing interaction strength”. For R292N;R294T, the “effect of a mutation on the interaction” value was “disrupting interaction strength”. In the case of R324N;G326T, the “effect of a mutation on the interaction” value is reported as “disrupting interaction strength”.

Variants of: B2
Conditions: with agrl3_mouse Adgrl3, Q80TS3
In the case of R186N;D188T, the “effect of a mutation on the interaction” value is reported as “disrupting interaction strength”.
